As usually defined, the EC50 is the concentration needed to bring the measured effect to its halfway point. A high value points to a need for much substance.

In the assay the target is T1, human GITR on cells (activated human T cells; 3A9-hGITR cells) (human, UniProt Q9Y5U5 26-241).
T1 chain: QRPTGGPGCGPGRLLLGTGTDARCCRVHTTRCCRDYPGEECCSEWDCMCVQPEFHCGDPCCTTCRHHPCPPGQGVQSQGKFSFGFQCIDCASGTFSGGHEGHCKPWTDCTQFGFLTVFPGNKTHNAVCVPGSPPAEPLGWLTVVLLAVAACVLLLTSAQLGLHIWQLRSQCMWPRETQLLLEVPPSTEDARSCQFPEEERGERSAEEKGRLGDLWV
The assay can be described thus: FACS binding to activated human CD4 T cells. (In general: In flow cytometry, cells or beads pass a laser one at a time.)

B1: anti-GITR-IgG2 (antibody)
heavy: QVQLVESGGGVVQPGRSLRLSCAASGFTFSSYGMHWVRQAPGKGLEWVAVIWYEGSNKYYADSVKGRFTISRDNSKNTLYLQMNSLRAEDTAVYYCARGGSMVRGDYYYGMDVWGQGTTVTVSSASTKGPSVFPLAPCSRSTSESTAALGCLVKDYFPEPVTVSWNSGALTSGVHTFPAVLQSSGLYSLSSVVTVPSSNFGTQTYTCNVDHKPSNTKVDKTVERKCCVECPPCPAPPVAGPSVFLFPPKPKDTLMISRTPEVTCVVVDVSHEDPEVQFNWYVDGVEVHNAKTKPREEQFNSTFRVVSVLTVVHQDWLNGKEYKCKVSNKGLPAPIEKTISKTKGQPREPQVYTLPPSREEMTKNQVSLTCLVKGFYPSDIAVEWESNGQPENNYKTTPPMLDSDGSFFLYSKLTVDKSRWQQGNVFSCSVMHEALHNHYTQKSLSLSPGK
light: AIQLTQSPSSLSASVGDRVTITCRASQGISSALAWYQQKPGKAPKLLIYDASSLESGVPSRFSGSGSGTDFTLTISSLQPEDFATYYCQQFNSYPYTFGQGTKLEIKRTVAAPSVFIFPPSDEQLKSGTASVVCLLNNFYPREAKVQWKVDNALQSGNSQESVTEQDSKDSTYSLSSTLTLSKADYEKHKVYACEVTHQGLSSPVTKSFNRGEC
Consider B1, for which the EC50 came out at 0.277 nM.

B2: anti-GITR-IgG2-IgG1.1 (antibody)
heavy: QVQLVESGGGVVQPGRSLRLSCAASGFTFSSYGMHWVRQAPGKGLEWVAVIWYEGSNKYYADSVKGRFTISRDNSKNTLYLQMNSLRAEDTAVYYCARGGSMVRGDYYYGMDVWGQGTTVTVSSASTKGPSVFPLAPCSRSTSESTAALGCLVKDYFPEPVTVSWNSGALTSGVHTFPAVLQSSGLYSLSSVVTVPSSNFGTQTYTCNVDHKPSNTKVDKTVERKCCVECPPCPAPPVAGPSVFLFPPKPKDTLMISRTPEVTCVVVDVSHEDPEVKFNWYVDGVEVHNAKTKPREEQYNSTYRVVSVLTVLHQDWLNGKEYKCKVSNKALPSSIEKTISKAKGQPREPQVYTLPPSREEMTKNQVSLTCLVKGFYPSDIAVEWESNGQPENNYKTTPPVLDSDGSFFLYSKLTVDKSRWQQGNVFSCSVMHEALHNHYTQKSLSLSPG
light: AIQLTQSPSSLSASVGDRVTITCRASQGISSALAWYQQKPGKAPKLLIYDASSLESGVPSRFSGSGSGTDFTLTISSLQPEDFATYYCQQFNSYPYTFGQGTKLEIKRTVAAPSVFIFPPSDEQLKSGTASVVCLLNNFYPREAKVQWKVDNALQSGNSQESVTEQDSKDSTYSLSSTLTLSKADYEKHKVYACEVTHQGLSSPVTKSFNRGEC
Consider B2, for which the response was half-maximal at 0.163 nM (EC50).

The record behind these values is patent publication US20180333502A1 (published 2018).
